According to paper PMC12009342:

What was measured:
[1] = target: HIV-1 Env antigen (BG505 SOSIP.664 gp140-his) (HIV-1 (BG505)) (UniProt Q2N0S6); test: SEC-MALS; Fab/antigen mixtures; Fab and HIV Env trimer mixed 3:1, Fab and EGFR or Nkp30 mixed 1:1; Superdex 200 Increase 10/300 GL, PBS with 200 ppm sodium azide, 1 mL/min
[2] = target: HIV-1 Env antigen (BG505 SOSIP.664 gp140-his) (HIV-1 (BG505)) (UniProt Q2N0S6); test: BLI; BLItz; His-tagged antigen captured on Anti-Penta-HIS (HIS1K) biosensor at 25 ng/µL for 300 s; Fab in solution at 4 concentrations; association 180 s, dissociation 300 s in PBS

NC-Cow1 Fab ulCDR-swap variant var1 (ulCDR of NC-Cow2)
stoichiometry N [1]: 1
Kd [2]: 0.125 µM
